The supplement of paper PMC10126150
± gives the standard deviation of the averaged measurements.

Tested on: ATP
Assay: switch fluorescence ratio, 500 uM ATP over buffer (Cy3 cluster intensity, sum of 5 cycles each) (fold (ratio)); higher = stronger signal-on switching upon ATP binding; sequences stand for … in TCGTCGGCAGCGTCAGATGTGTATAAGAGACAGTTTTTTTTTTTTTTTTTTTTTTTTT…TC
Details: aptamer strand: ATP DNA aptamer (quencher-CACCTGGGGGAGTATTGCGGAGGAAGG + anchor), 100 nM annealed; ATP concentration: 500 uM
How it was run: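 For every switch-domain sequence, the fluorescence ratio is the mean of per-cluster values, each being summed target-cycle Cy3 intensity over summed buffer-cycle Cy3 intensity. Clusters outside 100-1000 RFU were excluded. On a modified Illumina MiSeq flow-cell, the Cy3-labelled switching-strand clusters were annealed to 100 nM quencher-labelled ATP aptamer, imaged in selection buffer and then after 15 min with 500 uM ATP at 22 °C. Five such cycles were run, with NaOH stripping and re-annealing between them.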
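Also: ATP exposure 15 min at 22 °C before imaging.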

Sequence	switch fluorescence ratio
AGCGTTGTG	1.01 ± 0.044
AGCGTTTTCA	0.994 ± 0.04
AGCTAAAACG	1.14 ± 0.19
AGCTACACGT	1.05 ± 0.014
AGCTACTTTT	1.022 ± 0.0035
AGCTCTAAGA	1.02 ± 0.021
AGCTCTGCGA	1.09 ± 0.039
AGCTGATACG	1.31 ± 0.0078
AGCTGCATG	0.997 ± 0.024
AGCTGGGGTA	0.951 ± 0.029
AGCTGGTCGT	0.97265 ± 0.00075
AGCTGTACTA	1.21 ± 0.029
AGCTGTAGTA	1.01 ± 0.011
AGCTGTTTGG	1 ± 0.015
AGCTTAAGGA	1.03 ± 0.035
AGCTTAGGTC	1.03 ± 0.029
AGCTTCGTGG	0.971 ± 0.019
AGCTTCTTAT	1.03 ± 0.028
AGCTTGCTAT	0.97 ± 0.011
AGCTTGGGCG	0.995 ± 0.11
AGCTTGTGTG	1.01 ± 0.061
AGCTTTACGG	1.04 ± 0.019
AGCTTTAGGG	0.9905 ± 0.0022
AGCTTTATGC	0.935 ± 0.043
AGCTTTATTT	1.06 ± 0.12

Sequence	switch fluorescence ratio
AGCTTTGTC	0.989 ± 0.043
AGCTTTGTTT	1.01 ± 0.013
AGCTTTTGAA	1.006 ± 0.0026
AGCTTTTTGC	1.02 ± 0.038
AGGAAACTTA	0.988 ± 0.0076
AGGAAAGAAT	0.968 ± 0.056
AGGAAAGATT	1.01 ± 0.028
AGGAAATAGG	0.963 ± 0.049
AGGAAATATT	1.01 ± 0.012
AGGAAGGCGG	1.02 ± 0.035
AGGAAGGGGT	0.979 ± 0.033
AGGAAGGGTG	1.04 ± 0.022
AGGAAGGGTT	1.05 ± 0.12
AGGAAGGTGT	1.13 ± 0.2
AGGAAGTTGG	0.97916 ± 0.00082
AGGAATCGTT	0.9969 ± 0.0072
AGGAATGACT	1 ± 0.023
AGGAATTCGG	0.999 ± 0.017
AGGAATTGCT	1.03 ± 0.018
AGGAATTTGG	0.978 ± 0.024
AGGACAAAGG	0.989 ± 0.041
AGGACAGCGC	1.024 ± 0.008
AGGACAGGGT	0.972 ± 0.011
AGGACGGAAT	1.091 ± 0.0016
AGGACGGGCA	1.05 ± 0.053

Sequence	switch fluorescence ratio
AGGACTAAAG	0.982 ± 0.013
AGGAGAATGT	1.02 ± 0.011
AGGAGAGGAT	1.14 ± 0.28
AGGAGATTCA	0.959 ± 0.041
AGGAGCGTCG	1.01 ± 0.013
AGGAGCTAGT	1.01 ± 0.038
AGGAGCTGGT	1.02 ± 0.012
AGGAGGCTTC	0.983 ± 0.029
AGGAGGGGGC	1 ± 0.048
AGGAGGGTAA	1.024 ± 0.0031
AGGAGGGTTA	1 ± 0.028
AGGAGGTAAA	1.002 ± 0.0034
AGGAGGTGGG	0.981 ± 0.017
AGGAGTAGTC	0.996 ± 0.021
AGGAGTATTA	0.983 ± 0.018
AGGAGTCGGT	1.01 ± 0.012
AGGAGTTATT	1 ± 0.024
AGGAGTTGAA	0.978 ± 0.016
AGGATAAACT	1 ± 0.013
AGGATAACCG	1.028 ± 0.0012
AGGATACGGT	1.0054 ± 0.00059
AGGATATCAG	0.991 ± 0.027
AGGATATGGC	1.09 ± 0.12
AGGATGACAG	0.998 ± 0.04
AGGATGATGT	1.01 ± 0.032

Sequence	switch fluorescence ratio
AGGATGGACC	1.01 ± 0.024
AGGATGGAGG	1.035 ± 0.0019
AGGATGGTTT	1.002 ± 0.0077
AGGATGTTAT	1 ± 0.016
AGGATTCGGT	1.01 ± 0.027
AGGATTGAGT	1.024 ± 0.0094
AGGCAAATGC	1.25 ± 0.1
AGGCAACGAA	1.04 ± 0.039
AGGCAATTGT	1.026 ± 0.01
AGGCAGAGTA	0.992 ± 0.038
AGGCATATAG	1.09 ± 0.077
AGGCATTATA	1.01 ± 0.013
AGGCATTGGG	1.0154 ± 0.00096
AGGCCACTGA	1.034 ± 0.0011
AGGCCATAAG	0.9953 ± 0.0034
AGGCCCGGGA	0.997 ± 0.013
AGGCGAAGGG	0.993 ± 0.032
AGGCGGAAGT	1.014 ± 0.0031
AGGCGGGGGG	1.02 ± 0.041
AGGCGGGGTG	1.04 ± 0.024
AGGCGGGTAT	1.015 ± 0.0028
AGGCGGGTGG	1.03 ± 0.019
AGGCGTAAAA	0.985 ± 0.019
AGGCGTATTT	0.9987 ± 0.0062
AGGCGTTGGG	1.01 ± 0.015
